Experimental data: the supplement of paper PMC9170038

Test system: K4 kissing-loop RNA reporter
Assay: apparent KD of K4 kissing-loop reporter; higher = weaker reporter binding
Details: Eterna round: R107
Procedure: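 RNA-MaP round R107: designed RNA switches with theophylline, tryptophan, arginine or FMN aptamers are transcribed on-chip within common flanks. They are titrated with a labelled K4 kissing-loop RNA reporter in RNA-MaP buffer (100 mM Tris pH 7.5, 80 mM KCl, 4 mM MgCl2), without ligand or with the indicated ligand. Median apparent KD per design.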

[1] = input ligand: theophylline 20 uM
[2] = input ligand: tryptophan 2.4 mM
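Further: bound reporter read as fluorescence of individual clusters on recovered sequencing chips by microscopy, with normalized cluster intensities fitted with a binding model.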

Sequence | apparent KD of K4 kissing-loop reporter (input ligand: FMN 200 uM) | apparent KD of K4 kissing-loop reporter (input ligand: arginine 13.2 mM) | apparent KD of K4 kissing-loop reporter (input ligand: none) | apparent KD of K4 kissing-loop reporter [1] | apparent KD of K4 kissing-loop reporter [2]
UGCACGGGCUCGGCCGCCACUCCAGCGGGUCGAAAGGUCCGCUACUGAGUGAUGUUCGGUUGGAGGAGGACCGGGAGCCCGUGCA [#2 Exclusion - Tryptophan B Attempt #28 (HarryS)] | 98.9 nM | 97.9 nM | 122 nM | 115 nM | 140 nM
AUGAGGAACAGUGAUCCUACUCCAUGGGAAGGAGCGUAGGAUACUACAGGUAGGUCGCCCAGUGAUGUUGGGCGCGUGUUCUUGG [Ermaar] | 116 nM | 114 nM | 115 nM | 161 nM | 113 nM
GCUAGUGCCCGCUCGAAAGAGCGUGUGUGUAAGGAUAUCUAGUAAUAGAGAAGGUACGGAGUGAUGUUCCCACACGGGCACUAGC | 705 nM | 600 nM | 800 nM | 779 nM | 1060 nM
UGGAGUUGACGAAAAGUCAACUCCUGAGAAGGAGCGGACGAAAGUCCAGGUAGGUCGCUCACUGCCAGUGAUGUUGGUAAAUAAA [#OpenEnded 1 - Direct theophylline transfer] | 89.5 nM | 175 nM | 113 nM | 144 nM | 82.8 nM
GUUACGCAUGGAAGGAGCGCGAAAAUUAAAUGUGAGUGAUGUUCACAAAUAAAUUAAAUAACGCAGGUAGGUCGCCAUGUGUAAC [Ex Arginine B K4 3] | 80.3 nM | 77.6 nM | 89 nM | 80.7 nM | 80.9 nM
GGUGCGGGCUCGGCCGCCACUCCCGCGGGUCGUAAGGUCCGCUACUGAGUGAUGUUCGGUUGGAGGAGGACCGGGAGCCCGUGCC [#2 Exclusion - Tryptophan B Attempt #19 (HarryS)] | 115 nM | 113 nM | 106 nM | 85.3 nM | 106 nM
GCAGAACGCAGUGAUGUUGCGAAAUCGGAAGGAGCGCGUGAAAACGCAGGUAGGUCGCCGACACAGGGAUUAUAUCCCUGUUUGC [Arginine A K4 17] | 178 nM | 169 nM | 182 nM | 206 nM | 133 nM
UGACUGGACUGAAGGAGCGCCACGGUCAUAGACCGAAUAAGGAGUGAUGUUCCACAUAAAAGGCAGGUAGGUCGCAGUCUAGUCU [ArgBS 2 #SwitchBubble #StaticStem] | 121 nM | 113 nM | 107 nM | 98.1 nM | 101 nM
AAUAAGCGUGGAAGGAGCGUCGUCCAGUGAUGUUGGAGUUAGAUACCAGUGAUGUUGGUUAGGCAGGUAGGUCGCCGCAAAGCUU [Exclusion Arginine B Gf 7] | 96.8 nM | 67.6 nM | 90.8 nM | 86.3 nM | 81 nM
UUUUUAAACUCGGCCGCCACUCAAAUGGGAGUGAUGUUCCCAAAAUAAUAAAUAAAUAAUAAUAAGAGGACCGGGAGAAAUUUUU [Same State - Trytophan B] | 94 nM | 98.2 nM | 106 nM | 94.8 nM | 81.3 nM
CUCUGCUUCCCAGGGCUAGUGAUGUUAGCCCGAGGACCGGUACGGCCGCCACUCGAGUUAAGCAUCGACCGUGAAUGUUCGAAGC [theeternabot_exclusion_KL_Trp_A_48] | 138 nM | 143 nM | 139 nM | 179 nM | 140 nM
CCAUUCAUUUACGAUACCAGUCUAAUAUAUUUGAUCAAAACCCUCGCCGAGUGAUGUUCGGACCCUUGGCAGCGUCUGGGACAGG [eesetmullin] | 477 nM | 325 nM | 503 nM | 403 nM | 414 nM
CCAUCGCUAUUCGAUACCAGUCUUCGUAGGAAACUACGUCUGCAAAGGAGUGAUGUUCCAGACCCUUGGCAGCGAAUAGUGAUGG [Theophylline B K4 4] | 771 nM | 553 nM | 1110 nM | 444 nM | 799 nM
AAAUAUAGUGAUGUUAUAUAUAUAUGUGAUACCAGAGAAAAGAAACUCCCUUGGCAGCACGAGAGAGAAUUUUUUUUUUAUAUAU [AstrosSSTheA#2] | 370 nM | 409 nM | 498 nM | 471 nM | 328 nM
AUAAUCUUGCAGUGAUGUUGCAAGAAAGCUCAGGAUAUCAGGAAACUGAGAAGGGAGCAUCCUGAGCACUUGCAACAGUGCUCAG [[K1]-[K2]-[F1]-[F2]-[F]'-[K]'-[F]''_Design3] | 127 nM | 100 nM | 296 nM | 288 nM | 117 nM
AUGCUUUUAAUAACACUAUAUACAACUGAAGGAGCGACAAUAAAGUCAGGUAGGUCGCAGAAUAAAUGAGUGAUGUUCAUUUUUA [JR_ExcArginiA_Sub009] | 82.2 nM | 130 nM | 92.2 nM | 119 nM | 63.9 nM
AAAGCUUGGAUGGACGUUAGCGACGGAGAAGGAGCGCACGGAAGUGCAGGUAGGUCGCUCCGAGUGAUGUUCGUGAGUGAUUGCU [Ditienti] | 229 nM | 329 nM | 385 nM | 252 nM | 301 nM
CAGCGGAGUGAUGUUCUGCUUACUCCGGAUACCAGCUUCGCCAGAGGCCCUUGGCAGCCGGGCGGCUCAGUGAUGUUGGGUUGCU [Same State Theophylline A GF 16] | 934 nM | 532 nM | 870 nM | 979 nM | 765 nM
UGUUAUGUAUCAGGAUAUUAGUGAUGUUUGUUUAUGUUAGUGAUGUUGAUAUUUGUUUUAUGUAUUUAAGAAGGGAUUGUGAUGU [xexxmullin] | 74.1 nM | 23.1 nM | 55.4 nM | 35.9 nM | 57.8 nM
CGCGGCCGGCCGGAUACCAGUGACCCGCUGGCAACCGCGGGCCCAGAGUGAUGUUCGGGACACCCUUGGCAGCCGCCUGGGCGUG [#2 Same State - Theophylline B Attempt #4 (HarryS)] | 521 nM | 309 nM | 483 nM | 694 nM | 396 nM
GGAUUCGGCACGGCCGCCACUUCCGGUGGCUGGUGUCAUGGUGCGCGUGAGUGAUGUUUAUGUGGGAGGACCGGGUGUUGAGUCC [whbob_Ex_Tryp_B_w44] | 1020 nM | 433 nM | 834 nM | 1000 nM | 502 nM
